Experimental data reported in US20220380432A1, “Acylated Calcitonin Mimetics” (KeyBioscience AG, priority 2018, published 2022).
Ends that are not written are not given here.

T1: Calcitonin Receptor (CTR) (Homo sapiens (Human), UniProt P30988)
T1 sequence: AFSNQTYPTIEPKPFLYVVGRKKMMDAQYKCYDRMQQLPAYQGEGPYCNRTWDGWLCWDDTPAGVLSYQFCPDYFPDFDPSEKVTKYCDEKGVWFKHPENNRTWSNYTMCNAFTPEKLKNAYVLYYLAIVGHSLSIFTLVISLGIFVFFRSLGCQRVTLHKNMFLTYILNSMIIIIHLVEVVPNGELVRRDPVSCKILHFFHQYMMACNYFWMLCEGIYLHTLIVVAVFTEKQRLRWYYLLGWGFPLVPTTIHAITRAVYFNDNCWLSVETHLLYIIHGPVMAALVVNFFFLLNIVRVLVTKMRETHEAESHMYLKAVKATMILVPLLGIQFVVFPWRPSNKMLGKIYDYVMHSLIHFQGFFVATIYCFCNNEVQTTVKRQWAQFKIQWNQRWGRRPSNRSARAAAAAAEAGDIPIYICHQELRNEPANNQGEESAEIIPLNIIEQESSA

T2: Amylin Receptor (AMY-R) (Homo sapiens (Human), UniProt P30988)
T2 sequence 1: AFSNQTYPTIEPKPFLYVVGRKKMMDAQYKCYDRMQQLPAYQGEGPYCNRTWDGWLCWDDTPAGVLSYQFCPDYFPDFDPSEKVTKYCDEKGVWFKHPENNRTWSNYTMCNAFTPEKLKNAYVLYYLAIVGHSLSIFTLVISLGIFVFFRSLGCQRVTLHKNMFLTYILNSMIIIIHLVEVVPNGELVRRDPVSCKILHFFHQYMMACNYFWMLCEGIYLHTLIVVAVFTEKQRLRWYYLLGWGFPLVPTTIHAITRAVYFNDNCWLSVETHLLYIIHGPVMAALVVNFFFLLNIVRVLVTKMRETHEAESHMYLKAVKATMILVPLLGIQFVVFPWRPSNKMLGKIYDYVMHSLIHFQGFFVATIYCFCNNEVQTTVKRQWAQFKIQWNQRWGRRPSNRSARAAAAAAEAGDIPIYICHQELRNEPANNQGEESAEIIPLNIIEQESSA
T2 sequence 2: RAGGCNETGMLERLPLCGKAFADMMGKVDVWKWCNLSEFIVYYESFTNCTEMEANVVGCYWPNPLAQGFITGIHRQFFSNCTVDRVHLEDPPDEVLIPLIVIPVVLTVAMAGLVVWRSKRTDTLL


How the values were obtained:
20 week HFD SD rats = assay: Single dose food intake and body weight test in HFD SD rats (Examples 3, 4, 5, 8, 10, 12); format: in vivo, rat; details: for Food Intake ΔFOOD Sustained Attenuation (36 nmol/kg) Hours: 36 nmol/kg single dose
Excerpt: In the animal model studies, 12 week healthy Sprague Dawley (SD) rats were used to assess the potency of the acylated KBPs. In some examples they were fed normal chow during prior and during the tests, whereas in other examples, the 12 week healthy SD rats were fed high fat diet (HFD) for eight weeks prior to the test and for the duration of the test.
(§1) Rats were single caged four days prior to the test. Rats were randomized by weight into eleven groups (Vehicle (0.9% NaCl), KBPs (doses: 36 nmol/kg (150-157 μg/kg)). They were fasted overnight and then treated with a single dose of peptide or vehicle in the morning using subcutaneous administration. Food intake was monitored in the following intervals (0-4 hours, 4-24 hours, 24-48 hours . . . 144-168 hours). Body weight was measured at baseline and every 24 hours post s.c injection.
as §1, with “(doses: 4 nmol/kg (^17 μg/kg), 12 nmol/kg (^50 μg/kg) or” for “(doses:”, “([…]” for “(150-157”
Single high dose effect of A11/3 acylated variants of KBP-042 and KBP-066 on food intake and body weight in 20 week HFD SD rats. Rats were single caged four days prior to the test. Rats were randomized by weight into eleven groups (Vehicle (0.9% NaCl), KBPs (doses: 300 nmol/kg (^1000 μg/kg)).
The rats were fasted overnight and then treated with a single dose of peptide or vehicle in the morning using subcutaneous administration. Food intake was monitored in the following intervals (0-4 hours, 4-24 hours, 24-48 hours . . . […]). Body weight was measured at baseline and every 24 hours post s.c injection.
(§2) Rats were single caged four days prior to the test. Rats were randomized by weight into eight groups (Vehicle (0.9% NaCl), KBPs (doses: 3 nmol/kg (^10-11 μg/kg)). They were fasted overnight and then treated with a single dose of peptide or vehicle in the morning using subcutaneous administration. Food intake was monitored in the following intervals (0-4 hours, 4-24 hours, 24-48 hours, 48-72 hours, and 72-96 hours). Body weight was measured at baseline and at 4 hour, 24 hours, 48 hours, 72 hours and 96 hours post s.c injection.
as §2, with “4” for “3”, “s.c.” for “s.c”, “injection. Two backbones were tested, KBP-066 and KBP-021.” for “injection.”
as §2, with “4” for “3”, “(^13-14” for “(^10-11”

[1] = biological target: T1, Calcitonin Receptor (CTR); assay: cell-based or functional assay
Amylin Receptor (AMY-R) = biological target: T2, Amylin Receptor (AMY-R); assay: cell-based or functional assay

| Molecule | Food Intake ΔFOOD Sustained Attenuation (36 nmol/kg) Hours (20 week HFD SD rats) [h] | protracted in vivo efficacy, high dose test (in words) (20 week HFD SD rats; single s.c. dose 300 nmol/kg) | β-arrestin Fold Recruitment EC50 values (10^-9 M) [1] [nM] | β-arrestin Prolonged CTR response (10 nM) tAUC value 0-72 h [1] | β-arrestin Fold Recruitment EC50 values (10^-09 M) (Amylin Receptor (AMY-R)) [nM] |
| --- | --- | --- | --- | --- | --- |
| KBP-372: KBP-042 core, A11/3 acylation (Ac-CSNLSTCVLGKLSQELHKLQTYPRTDVGANAP-NH2; not fully specified (residue 11); ends and bridges not checked) | 96 | superior protracted in vivo efficacy that lasted for days |  |  |  |
| KBP-377: KBP-089 core, A32/3 acylation (Ac-CSNLSTCMLGRLSQDLHRLQTYPKTDVGANAPK; not fully specified (residue 33); ends and bridges not checked) | 72 |  |  |  |  |
| KBP-374: KBP-042 core with added C-terminal acylated lysine (A32 type, Table 1) (Ac-CSNLSTCVLGKLSQELHKLQTYPRTDVGANAPK; not fully specified (residue 33); ends and bridges not checked) | 72 |  |  |  |  |
| Ac-CSNLSTCVLGKLSQELHKLQTYPRTDVGANAPK (not fully specified (residue 33); ends and bridges not checked) [KBP-374] |  |  | 49.2 | 1070 | 151 |
| Ac-CSNLSTCVLGKLSQELHKLQTYPRTDVGANAP-NH2 (not fully specified (residue 11); ends and bridges not checked) [KBP-372] |  |  | 7.8 | 1300 | 45.6 |
| Ac-CSNLSTCMLGRLSQDLHRLQTYPKTDVGANAPK (not fully specified (residue 33); ends and bridges not checked) [KBP-377] |  |  | 66 | 1400 | 73.1 |
